From the supplement of paper PMC12042874
± gives the uncertainty stated by the source.

Test: amyloid nucleation score (Sup35N fusion, yeast selection) (log enrichment); library NNK2; higher = more nucleation; inactive = no reads after selection
Summary of the method: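 Using DiMSum, nucleation scores were taken as the log enrichment of output over input reads, centred on the mode score of non-aggregating sequences. The input and output reads came from Illumina sequencing of plasmid inserts, with sequences under 100 input reads excluded. The yeast were psi-negative, expressed Sup35N fused to peptides of 20 random codons, were induced with 100 μM copper sulfate for 24 hours, and were grown 7 days at 30°C on medium lacking adenine and uracil.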

Substance | amyloid nucleation score
SKMCCDMYISISCIIWSARR | 0.352 ± 0.32
VYRQNLNLNME | 0.189 ± 0.64
LNTEMGSLKNL | 3.08 ± 0.06
RSTPLKYNLRFIPLSHGRRV | -0.431 ± 0.48
KYERYLNRFSLLLRTAMVHR | -0.362 ± 0.29
TVIGFRDRDSWSMEMIEDHC | -0.272 ± 0.43
YLTEALPDRSRYRSTSVMCV | 1.86 ± 0.32
NIAWTVDRYRKGSARGV | 1.17 ± 0.23
LAFYSFIRYTRLSIEMVAIS | -0.741 ± 0.31
FAVFPLVPGRGPGLFENNRW | -0.104 ± 0.74
FWQVCPLYRSSCIGSGCCIK | 1.78 ± 0.17
FFSNIFIEASVCELGSNANV | 1.03 ± 0.23
IPTFKDLGFISESIMYNG | -1.38 ± 0.42
HSSLFSYREQLYTSFCNIGM | 4.99 ± 0.067
TMILCRKYNASWMIVARNDL | -0.311 ± 1.1
FFEMFGCHMFLLMAYLTI | 0.164 ± 0.63
AFPPE | -0.726 ± 1.1
TGGRNVHNCNNNHASSWPRC | -1.05 ± 0.76
RFRFGAVNLV | 0.849 ± 0.49
KLVCRMTGCFWVVFIACPYY | 0.175 ± 0.35
SLMFGLIHSWDMK | inactive
MAMVLWLECTS | 0.924 ± 0.47
GTFQSYHDTPEECSFRGKSV | -0.114 ± 1.1
NNFWSNGG | -0.285 ± 0.48
GEMYV | -0.31 ± 1

Substance | amyloid nucleation score
FACRWFQSWSLRYLFPELTL | -0.238 ± 0.5
RSGLLDMS | -0.129 ± 1.1
VCNRPI | -0.78 ± 0.26
CMFGEEFGLNKNVVGSLGLY | inactive
WHGTDHKIVGQDIVVVYSAV | 0.491 ± 0.6
KRSKSR | inactive
SRFPGCSVSTGRHRTKVSSR | 0.177 ± 0.43
NHVNNLIHDFRPALEHLRDT | -0.134 ± 0.45
QARLLSYLGDLVLASSWKVL | -0.891 ± 0.64
DNCSLPSGTMGSDNSGGRIQ | -0.444 ± 0.32
PRWAKYYVLSRC | -1.6 ± 1.1
YNWVNTPGHVNL | -1.4 ± 0.62
PMLEFWFMAWIEMFTYKKCC | 1.8 ± 0.53
QMLDTRSLGNDYNYNVYSLA | -1.41 ± 0.39
FAGNAHGRRTG | 1.3 ± 0.31
SSTWLGLS | 0.112 ± 1.1
DMGVFSLLDNK | 0.579 ± 0.66
RRLSGSFLRDYVNPWIQRSS | -0.277 ± 0.42
SLNLFV | -0.901 ± 0.78
IASTVDFKSLIISGDPSRQF | -0.235 ± 0.46
PGSRTWFGTMLAPDTCLHEM | 1.7 ± 0.16
KRKLSKYFLRLKLKCFWVM | -0.753 ± 0.48
SFRQIATLYEKMFNDNGNGI | -0.528 ± 0.37
SKMWTIRYFSLVRCLHGLLN | -0.985 ± 0.45
CDGSGCTDFVVCLHK | -0.195 ± 0.31

Substance | amyloid nucleation score
RLSFNWSLKSYMLPLESSVV | -0.079 ± 0.55
SYAESLPLSDYNAVVRFPWT | -0.304 ± 1.1
RVVRLAFNPRPSDAWILYR | 0.325 ± 0.34
RSLFKLTENCCIIVSWASDN | 8.848 ± 0.057
DALDTRKLYN | inactive
ASVRENFYIGLCRKCYYHNP | 1.59 ± 0.16
QFRTIHAHYNFFG | 7.68 ± 0.048
FNAIYIKFTGRFSLTRDNRC | 1.73 ± 0.21
WWNEYSH | -1.01 ± 0.39
CYWERWAS | -1.84 ± 0.78
DRACPYLWVPLRLRGLDTII | -1.32 ± 0.44
VLEDNALVRYKDRGSSGWTV | 3.15 ± 0.059
GNVFEHIQSMIRDSFEEHSG | 0.889 ± 0.2
KLFRQQCDS | 0.247 ± 0.8
KFKDHVGLYKPMGSRKFLDW | -0.28 ± 0.28
INFTYMGVMIFLSLLRQTWG | -0.311 ± 0.56
QNCQFGMH | 0.88 ± 0.48
IWRFRGRRNRAWKF | -0.333 ± 0.62
TAWHFPCRQRDLQLVSKVTG | inactive
LPCFL | 1.93 ± 0.1
GCGGDKKDFVISFWWEKYFR | -1.74 ± 0.53
IYYGGYVNRLNREAFRGCKL | -1.49 ± 0.49
YSSFDISLYFGNHHWSLMTR | 4.11 ± 0.078
RWEDRPSVTRRSGVRNGFSG | inactive
ILNLLLVCLRIFDGLYLTRY | -1.06 ± 1.1

Substance | amyloid nucleation score
TKVMQGVNSMARGV | 1.08 ± 0.39
LLLNILLCIDPYIPWCLSLR | 0.974 ± 0.57
LVNDHGVSVVSCGTD | 0.053 ± 0.79
RSRSGVLVERFMAVSWDAWH | 5.691 ± 0.051
DFITVYECHCRIFGCVDREA | -0.352 ± 0.5
SGFVIWRRQHFEFQEVRSS | -0.515 ± 1.1
IIHYAFSRNWSP | 1.54 ± 0.31
ASSMILL | -1.18 ± 0.64
EGVVSVRVFKYTGSYG | 0.599 ± 0.8
ICDDNVAVEWLRLTVCTFRL | 0.396 ± 0.28
IVILTC | 0.464 ± 0.26
HLVMCMARVGTTVNLMSHQT | 6.304 ± 0.057
YDVRLFKLTTTSFAIVLSEW | 0.823 ± 0.21
LLFIIMRDLLYPTLEDTFLT | 0.317 ± 0.5
DNWVLYNCFTTSEKLSM | 0.553 ± 0.19
SGSLSINDNSCYGENTNTVL | -1.21 ± 1.1
NCVTHFMFNLDWSLWFEVCF | -1.04 ± 1.1
RIYFVEFMESWWGVGSLKEV | 3.51 ± 0.094
SCYFLFGHDG | -0.517 ± 0.49
MFLNPQPVFDLISFNVVSTP | 9.306 ± 0.032
NASLYVSYGM | 1.5 ± 0.39
ISLAINLCALIDATRDWSPC | 6.12 ± 0.05
IINSDLMCLVNLFVNDSMRG | 8.093 ± 0.059
SMSIWSFYIAP | 4.59 ± 0.066
FGIGFGFLVHYDGRFWVYFG | inactive

Substance | amyloid nucleation score
NIPRRGIVGWTAL | inactive
ISRKVAGSRDCINVRSTIGL | -1.14 ± 0.44
VSFTARSRHVDGGLSS | 1.04 ± 0.32
SGQKFN | 0.015 ± 0.76
KFNILPKLWMDICMIYLAVY | -1.33 ± 0.49
GFEQRGIRVMFVPYDINFSV | 6.269 ± 0.031
MRWIFGHAGPSFSCILKKRP | inactive
YMRVLGVDGHIRCVWLD | inactive
PLAVGRCGGIAYSVWCTVNL | 5.15 ± 0.078
VATAAEWVQAGLE | 2.32 ± 0.11
VKFFFTILVPFLIFVS | inactive
WFYTYSLFGFVVNIVFTYPL | -0.176 ± 0.36
ARLVYQLATRTCCFSQ | -0.032 ± 1.1
TRMMCKRFRIML | 0.544 ± 0.49
FVFHWLFVSSRACILHPVVW | 0.604 ± 0.3
KNKWRSMV | 0.953 ± 0.18
CASWLVCMFRGMFRVLNTSG | 2.82 ± 0.17
SWMRFVKKIRQDAVRAVLIG | 1.36 ± 0.4
GVKWSVSFKNWHYWKSMSVV | 1.26 ± 0.66
TGCDVLRIVTRMMGKNKRYF | -0.047 ± 1.1
NRSFNMHPCGILKKNLVVGV | 0.613 ± 0.74
SYRLYFFMGFDMLYLCMG | -0.177 ± 0.79
IDHNTSRC | 0.023 ± 0.76
RKVPVR | inactive
FCRSVILSVQMLFKYAIYRF | -1.37 ± 1.1

Substance | amyloid nucleation score
LWVLTSRDDVFMVVFFMTPK | -0.483 ± 0.5
CSSWRAYWNSGLQFLVIFGV | -0.737 ± 0.32
GHVTYLVTAPHV | 2.89 ± 0.14
CPSWSSLLISPYYYSSVSHK | -0.443 ± 0.79
VCIVDLVS | -0.203 ± 0.65
YVHMMSMKPHQLINCLRLFY | -1.2 ± 0.74
NVCNTNWESVRKAWFSNMMV | 0.775 ± 0.52
RMGCLFCRESNWILSFYSVS | 5.87 ± 0.074
RTALKYPVSYSRFGSFADES | -0.73 ± 0.41
YLIPFMYAKCLSWVILRK | 0.029 ± 0.23
TYGLWRFGTRGKDEFKSPNR | 6.16 ± 0.058
MGDSTIEVTLPVG | 0.987 ± 0.39
GTILPCNWNNLLYWVVGENA | 0.438 ± 0.25
QYWQYWSWIGCVCLLCGWRF | 0.91 ± 0.26
DFIKMVV | 3.73 ± 0.12
TNPSSKPAWVTSR | 0.007 ± 0.79
AQWSRIDCNTLCKAVPISLA | 5.773 ± 0.056
PFFLMISAVISHHNEHRHTM | 5.926 ± 0.058
RTSCVYSHWQHNIERLLGRW | inactive
FYCYNFFWFL | 6.085 ± 0.033
CVINKKNYDSFGFSVFTFYK | 3.19 ± 0.074
VASGDSVLPKDIVFFSSIQG | -0.653 ± 0.29
RRGNLGDAMNNMARFCSYSF | inactive
VDCCSFSLWVVW | 3.98 ± 0.093
VFARWFYAADGYIARLHVHT | 0.133 ± 0.5

Substance | amyloid nucleation score
PQHYVMGYVCWDVSVVLRSP | 2.91 ± 0.092
YGIRYYICKFMLKSFICSWY | -1.33 ± 1.1
HLLQRLSRGHMSALKTRLSW | 0.123 ± 1
EFRGWNI | -0.587 ± 0.79
VSLSERLTHLLCIRF | 0.343 ± 0.64
YVWSWVGQYCRVIAAHGIWW | 0.79 ± 0.26
FTTPVSFSFVLRLITTPRTY | -1.29 ± 0.75
SGIMRIE | inactive
DVVFFVSYW | 3.86 ± 0.098
RVRIGQAGVWAPRPKELTLW | 0.679 ± 0.81
IMIMYFCCDMGRLGP | 8.458 ± 0.056
MMGWFPRKLES | -0.125 ± 0.41
KDLPTSYIYMFDY | -1.2 ± 0.78
LACLVIFMTVSDMDVLSGLF | -0.39 ± 0.21
MWLASSDNYHNMALVCFCVL | inactive
RLHKTSNITTWIAHPLHNR | -0.038 ± 0.65
PAVSYFFITFYVIVRFRLAE | 2.86 ± 0.18
NRRFSSGSVSSLKFLRSVWA | -0.428 ± 0.61
LGPALFICSDEGDMPL | -0.598 ± 0.63
NKARWAPVRMEALLVAQRVG | 1.28 ± 0.38
NINYGSSA | -0.746 ± 0.78
PNDHNQLQGPMLSLPPVKQV | -0.359 ± 0.41
